From US20080199896

How the values were obtained:
[1] = molecular target: GST-TSC2 fragment 1 (amino acids 910-1112) (UniProt P49816)
[2] = molecular target: GST-TSC2 fragment 2 (amino acids 1357-1765) (UniProt P49816)
[3] = molecular target: purified TSC2-F2 fragment (AMPK assay, contains T1227) (UniProt P49816)
[4] = molecular target: TSC2 fragment containing S1345 (UniProt P49816)

Row | Substance | in vitro phosphorylation by purified kinase [1] | in vitro phosphorylation by purified kinase [2] | in vitro phosphorylation by immunoprecipitated kinase [3] | in vitro phosphorylation by immunoprecipitated kinase [4]
1 | GST-Akt (wild type) | Wild-type Akt, but not the kinase-inactive Akt-KM mutant, efficiently phosphorylated both fragment 1 and fragment 2 of TSC2 in vitro | Wild-type Akt, but not the kinase-inactive Akt-KM mutant, efficiently phosphorylated both fragment 1 and fragment 2 of TSC2 in vitro | – | –
2 | immunoprecipitated AMPK (in vitro kinase assay) | – | – | In vitro phosphorylation of the purified TSC2-F2 fragment by immunoprecipitated AMPK showed that AMPK specifically phosphorylates TSC2 on T1227 | The TSC2 fragment was phosphorylated by immunoprecipitated AMPK, but not the kinase inactive AMPK mutant
